Here are results for one protein from patent US20100291137A1 (GlaxoSmithKline, published 2010).

The series concerns the molecule itself. As to the kind of experiment: analytical ultracentrifugation and chemical cross-linking.

B1: refolded NspA (recombinant mature NspA of Neisseria meningitidis strain H44/76, without the 19 amino acid signal peptide) (other)
chain: EGASGFYVQADAAHAKASSSLGSAKGFSPRISAGYRINDLRFAVDYTRYKNYKAPSTDFKLYSIGASAIYDFDTQSPVKPYLGARLSLNRASVDLGGSDSFSQTSIGLGVLTGVSYAVTPNVDLDAGYRYNYIGKVNTVKNVRSGELSAGVRVKF
As for B1, the binding result was “no binding”.
